Data from publication PMC10902354, “Deficiency in PHD2-mediated hydroxylation of HIF2α underlies Pacak-Zhuang syndrome” (Communications Biology, 2024).
Blank lines part the entries; values can stand above or below the molecule they belong to. Peptide text beside a SMILES is read from it.

Experiments:
[1] = target: T1, PHD2 (prolyl-hydroxylase domain, residues 181–426) (Homo sapiens, UniProt Q9GZT9); test: Microscale thermophoresis (MST) binding of HIFα-CODD peptides to the catalytic domain of PHD2; conditions: MST; for PHD2 affinity / Kd compared with another peptide (in words): with NOG; for Kd relative to WT HIF2α-CODD: fold of the HIF2α WT Kd; for Kd (MST-determined PHD2/HIFα-CODD complex dissociation constant): 25 nM Alexa 647-labeled PHD2, Tris–HCl with NOG (1 mM NOG, 10 µM FeSO4, 5 mg/ml BSA in 2x MST Buffer pH 7.5), peptide in Tris pH 8.0, room temperature, 10 min incubation, 1:1 Kd model, triplicate measurements, highest concentration omitted for Y532H and P531A (aggregation); for Kd (Fit Results, Fit Model Kd): target WT-PHD2(181-426), TargetConcentration 2.5e-8, ligand HIF2a-CODD peptide, MST-Power Medium, Excitation-Power 20 Nano - RED, hot region 19 to 20, unit of Kd not printed (doses of the same sheet are in M), Fig. 1c source data
T1 construct: encodes for His6-PHD2 (prolyl-hydroxylase domain, residues 181–426); His6 (N, cleaved yes); made in house; host or cells: E. coli BL21(DE3)
T1 sequence (Q9GZT9 181-426): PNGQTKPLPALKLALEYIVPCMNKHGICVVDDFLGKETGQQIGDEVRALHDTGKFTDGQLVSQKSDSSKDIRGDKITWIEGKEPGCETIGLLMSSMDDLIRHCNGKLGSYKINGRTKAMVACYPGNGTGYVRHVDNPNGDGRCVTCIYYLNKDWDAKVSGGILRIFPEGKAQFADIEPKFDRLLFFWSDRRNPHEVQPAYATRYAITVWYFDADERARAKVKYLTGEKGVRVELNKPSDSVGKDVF
Experimental: To determine if there is a direct effect of HIF2α mutations on PHD2 binding, we devised a quantitative method for determining the dissociation constant (Kd) of the HIF2α-CODD peptides and the catalytic domain of PHD2 using microscale thermophoresis (MST)[13],[14] in the presence of the PHD inhibitor n-oxalylglycine (NOG) to inhibit reaction turnover.
PHD2 was purified via a previously described but modified procedure[4],[30]. […] Cells were grown to an OD600 of 0.8 at 37 °C and expression of His6-PHD2 was induced with a final concentration of 0.5 mM IPTG. Cells were grown for an additional 3 h post-induction at 37 °C and harvested via centrifugation. Cell pellets were either used immediately for purification or stored at −80 °C for later use. Cell pellets were resuspended in Lysis Buffer (50 mM Tris–HCl pH 7.9, 500 mM NaCl, 5 mM Imidazole) containing 1x SigmaFast protease inhibitor cocktail (Sigma-Aldrich) and lysed with 3 passes through an Emulsiflex-C3 cell disruptor (Avestin) at 20-30 kPSI. […] Clarified lysates were applied to a 2 ml Ni-NTA (Thermo Scientific) column pre-equilibrated with Lysis Buffer. The beads were washed with 10 ml Lysis buffer and 2 × 30 ml of Wash Buffer (50 mM Tris–HCl pH 7.9, 500 mM NaCl, 30 mM Imidazole). His6-PHD2 was eluted by applying 10 ml Elution Buffer (50 mM Tris–HCl pH 7.9, 500 mM NaCl, 1 M Imidazole) to the column. Ni-NTA purified His6-PHD2 was dialyzed using a 10 kDa cut-off dialysis membrane against 2 L of Dialysis Buffer (50 mM Tris–HCl pH 7.5) for 4 h at 4 °C. […] Dialysis and thrombin cleavage were allowed to continue overnight at 4 °C. Thrombin-cleaved PHD2 was collected and applied to a 2 ml Ni-NTA column pre-equilibrated with Dialysis Buffer to remove uncleaved protein and cleaved His6 tags. The flow-through was collected and the beads were washed with 10 ml of Dialysis Buffer supplemented with 5 mM imidazole. The 5 mM imidazole eluate was pooled with the flow through and concentrated with an Amicon 10 kDa cut-off centrifugal concentrator (Millipore) to a volume of ~600 µl. The concentrated PHD2 was then applied to a Superdex 75 Increase 10/300 GL column (Cytiva) equilibrated with Dialysis Buffer or Labeling Buffer (50 mM HEPES pH 7.5, 150 mM NaCl) depending on the intended use of the sample. Eluted fractions containing PHD2 were collected and pooled. For the His6-PHD2 used in the indirect hydroxylation assay, no thrombin was added during dialysis steps therefore the His6-tag was not removed and the subsequent passage of the sample through Ni-NTA beads to remove His6-tags was not performed. Otherwise, the purification protocol for His6-PHD2 is the same as thrombin-cleaved PHD2. All purification steps were analyzed by SDS–PAGE and the Superdex 75 Increase chromatogram was used to assess size and aggregation, see Supplementary Fig. 5 for a representative purification assessment.
Labeling was conducted at room temperature for 1 h in the dark. Excess dye was then removed first by the passage of the sample through a PD-10 desalting column containing Sephadex G-25 resin (Cytiva) equilibrated with Dialysis Buffer and then any remaining excess dye was removed via repeated 10-fold dilution in Dialysis Buffer and subsequent concentration in an Amicon 10 kDa cut off centrifugal filter until the dye could no longer be detected in the concentrator flow through by Absorbance at 650 nm.
MST measurements were taken using a Monolith NT.115 (Nanotemper Technologies) at room temperature using standard MST capillaries (Nanotemper Technologies). […] For each HIFα-CODD peptide, ~1 mg dry weight of peptide was dissolved in 200 µl of 50 mM Tris–HCl pH 8.0 and concentrations were measured using UV absorbance at 280 nm for most peptides and BCA assay (Thermo Scientific) for Y532C and Y532H peptides using known concentrations of the WT HIF2α-CODD peptide to create a standard curve.

[2] = target: T2, Alexa 647 labeled PHD2 (catalytic / prolyl-hydroxylase domain, residues 181-426) (human, UniProt Q9GZT9 181-426, Alexa Fluor 647 N-hydroxysuccinimide ester dye, 1-2 dye molecules per protein molecule); test: MST; 25 nM Alexa 647 labeled PHD2, unlabeled peptide in 16 two-fold dilutions; room temperature; MST Buffer 50 mM Tris-HCl pH 7.5, 1 mM NOG, 10 µM FeSO4, 5 mg/ml BSA mixed 1:1 with peptide in 50 mM Tris-HCl pH 8.0; 1:1 Kd model; triplicate; conditions: both partners purified
T2 construct: PHD2, prolyl-hydroxylase domain (catalytic domain), residues 181-426, from pET-46-HIS6-PHD2; Same construct as m2, dye-labeled for MST; also called PHD2-647; source: E. coli BL21(DE3), purified (Ni-NTA, thrombin cleavage, Superdex 75), labeled with Alexa Fluor 647 NHS ester
T2 sequence (Q9GZT9 181-426): as above

Molecule: CC[C@H](C)[C@H](NC(=O)[C@H](Cc1ccc(O)cc1)NC(=O)[C@@H]1CCCN1C(=O)[C@@H](NC(=O)[C@H](CC(C)C)NC(=O)[C@@H](NC(=O)[C@H](CCC(=O)O)NC(=O)[C@H](CC(C)C)NC(=O)[C@H](CC(=O)O)NC(=O)[C@H](CC(C)C)NC(=O)[C@H](CCC(=O)O)NC(C)=O)[C@@H](C)O)[C@@H](C)O)C(=O)N1CCC[C@H]1C(=O)N[C@@H](CCSC)C(=O)N[C@@H](CC(=O)O)C(=O)NCC(=O)N[C@@H](CCC(=O)O)C(=O)N[C@@H](CC(=O)O)C(=O)N[C@@H](Cc1ccccc1)C(=O)N[C@@H](CCC(N)=O)C(=O)N[C@@H](CC(C)C)C(N)=O [HIF2α A530T]
- PHD2 affinity / Kd compared with another peptide (in words) [1]: significant effect on PHD2 binding affinity

- Kd relative to WT HIF2α-CODD [1]: 2.4 × WT
Molecule: CC[C@H](C)[C@H](NC(=O)[C@H](Cc1ccc(O)cc1)NC(=O)[C@@H]1CCCN1C(=O)[C@H](C)NC(=O)[C@H](CC(C)C)NC(=O)[C@@H](NC(=O)[C@H](CCC(=O)O)NC(=O)[C@H](CC(C)C)NC(=O)[C@H](CC(=O)O)NC(=O)[C@H](CC(C)C)NC(=O)[C@H](CCC(=O)O)NC(C)=O)[C@@H](C)O)C(=O)N1CCC[C@H]1C(=O)N[C@@H](CCSC)C(=O)N[C@@H](CC(=O)O)C(=O)N[C@@H](Cc1c[nH]c2ccccc12)C(=O)N[C@@H](CCC(=O)O)C(=O)N[C@@H](CC(=O)O)C(=O)N[C@@H](Cc1ccccc1)C(=O)N[C@@H](CCC(N)=O)C(=O)N[C@@H](CC(C)C)C(N)=O [HIF2α G537W] (Ac-ELDLETLAPYIPMDWEDFQL-NH2)

- PHD2 affinity / Kd compared with another peptide (in words) [1]: intermediate affinity
Molecule: CC[C@H](C)[C@H](NC(=O)[C@H](Cc1ccc(O)cc1)NC(=O)[C@@H]1CCCN1C(=O)[C@H](C)NC(=O)[C@H](CC(C)C)NC(=O)[C@H](CCSC)NC(=O)[C@H](CCC(=O)O)NC(=O)[C@H](CC(C)C)NC(=O)[C@H](CC(=O)O)NC(=O)[C@H](CC(C)C)NC(=O)[C@H](CCC(=O)O)NC(C)=O)C(=O)N1CCC[C@H]1C(=O)N[C@@H](CCSC)C(=O)N[C@@H](CC(=O)O)C(=O)NCC(=O)N[C@@H](CCC(=O)O)C(=O)N[C@@H](CC(=O)O)C(=O)N[C@@H](Cc1ccccc1)C(=O)N[C@@H](CCC(N)=O)C(=O)N[C@@H](CC(C)C)C(N)=O [HIF2α T528M] (Ac-ELDLEMLAPYIPMDGEDFQL-NH2)

- PHD2 affinity / Kd compared with another peptide (in words) [1]: near wild-type affinity
- Kd relative to WT HIF2α-CODD [1]: 1.2 × WT
Molecule: CC[C@H](C)[C@H](NC(=O)[C@H](Cc1c[nH]cn1)NC(=O)[C@@H]1CCCN1C(=O)[C@H](C)NC(=O)[C@H](CC(C)C)NC(=O)[C@@H](NC(=O)[C@H](CCC(=O)O)NC(=O)[C@H](CC(C)C)NC(=O)[C@H](CC(=O)O)NC(=O)[C@H](CC(C)C)NC(=O)[C@H](CCC(=O)O)NC(C)=O)[C@@H](C)O)C(=O)N1CCC[C@H]1C(=O)N[C@@H](CCSC)C(=O)N[C@@H](CC(=O)O)C(=O)NCC(=O)N[C@@H](CCC(=O)O)C(=O)N[C@@H](CC(=O)O)C(=O)N[C@@H](Cc1ccccc1)C(=O)N[C@@H](CCC(N)=O)C(=O)N[C@@H](CC(C)C)C(N)=O [HIF2α Y532H] (Ac-ELDLETLAPHIPMDGEDFQL-NH2)

- Kd (MST-determined PHD2/HIFα-CODD complex dissociation constant) [1]: No binding
- Kd (Fit Results, Fit Model Kd) [1]: 0.01043
Molecule: HIF2α L529P: Class 1 mutant HIF2α-CODD peptide (Ac-ELDLETPAPYIPMDGEDFQL-NH2)

- Kd (MST-determined PHD2/HIFα-CODD complex dissociation constant) [1]: No binding
Molecule: HIF2α P531L: Class 1 mutant HIF2α-CODD peptide (Ac-ELDLETLALYIPMDGEDFQL-NH2)

- Kd (MST-determined PHD2/HIFα-CODD complex dissociation constant) [1]: No binding
- Kd (Fit Results, Fit Model Kd) [1]: 0.01316
Molecule: HIF2α P531S: Class 1 mutant HIF2α-CODD peptide (Ac-ELDLETLASYIPMDGEDFQL-NH2)

Molecule: HIF2α Y532C: Class 1 mutant HIF2α-CODD peptide (Ac-ELDLETLAPCIPMDGEDFQL-NH2)
- PHD2 affinity / Kd compared with another peptide (in words) [1]: strongly detrimental to the interaction of PHD2 with HIF2α-CODD

- Kd [2]: 627 ± 126 µM
B1: HIF2α-CODD A530T peptide (peptide, UniProt Q99814 523-542, looked up)
peptide: Ac-ELDLETLTPYIPMDGEDFQL-NH2
notes: HIF2α (EPAS1) CODD peptide, human, as m3 with the disease mutation A530T (Class 1); also called HIF2α A530T; source: synthetic peptide (Genscript, ≥95% purity)

- Kd [2]: 221 ± 19 µM
B2: HIF2α-CODD P534L peptide (peptide, UniProt Q99814 523-542, looked up)
peptide: Ac-ELDLETLAPYILMDGEDFQL-NH2
notes: HIF2α (EPAS1) CODD peptide, human, as m3 with the disease mutation P534L (Class 2); also called HIF2α P534L; source: synthetic peptide (Genscript, ≥95% purity)

- Kd [2]: 760 ± 274 µM
B3: HIF2α-CODD D539N peptide (peptide, UniProt Q99814 523-542, looked up)
peptide: Ac-ELDLETLAPYIPMDGENFQL-NH2
notes: HIF2α (EPAS1) CODD peptide, human, as m3 with the disease mutation D539N (Class 1); also called HIF2α D539N; source: synthetic peptide (Genscript, ≥95% purity)
